Numbering of substitutions follows the chain as printed. Like-named read-outs stand apart in the source and are kept apart here.
B1: N-terminal cleavage product of c-Myc-tagged USP1 (rabbit reticulocyte lysate) (protein)
chain: MPGVIPSESNGLSRGSPSKKNRLSLKFFQKKETKRALDFTDSQENEEKASEYRASEIDQVVPAAQSSPINCEKRENLLPFVGLNNLGNTCYLNSILQVLYFCPGFKSGVKHLFNIISRKKEALKDEANQKDKGNCKEDSLASYELICSLQSLIISVEQLQASFLLNPEKYTDELATQPRRLLNTLRELNPMYEGYLQHDAQEVLQCILGNIQETCQLLKKEEVKNVAELPTKVEEIPHPKEEMNGINSIEMDSMRHSEDFKEKLPKGNGKRKSDTEFGNMKKKVKLSKEHQSLEENQRQTRSKRKATSDTLESPPKIIPKYISENESPRPSQKKSRVKINWLKSATKQPSILSKFCSLGKITTNQGVKGQSKENECDPEEDLGKCESDNTTNGCGLESPGNTVTPVNVNEVKPINKGEEQIGFELVEKLFQGQLVLRTRCLECESLTERREDFQDISVPVQEDELSKVEESSEISPEPKTEMKTLRWAISQFASVERIVGEDKYFCENCHHYTEAERSLLFDKMPEVITIHLKCFAASGLEFDCYGGGLSKINTPLLTPLKLSLEEWSTKPTNDSYGLFAVVMHSGITISSGHYTASVKVTDLNSLELDKGNFVVDQMCEIGKPEPLNEEEARGVVENYNDEEVSIRVGGNTQPSKVLNKKNVEAIGLLGG
B2: c-Myc-tagged USP1 synthesized in rabbit reticulocyte lysate (protein)
chain: MPGVIPSESNGLSRGSPSKKNRLSLKFFQKKETKRALDFTDSQENEEKASEYRASEIDQVVPAAQSSPINCEKRENLLPFVGLNNLGNTCYLNSILQVLYFCPGFKSGVKHLFNIISRKKEALKDEANQKDKGNCKEDSLASYELICSLQSLIISVEQLQASFLLNPEKYTDELATQPRRLLNTLRELNPMYEGYLQHDAQEVLQCILGNIQETCQLLKKEEVKNVAELPTKVEEIPHPKEEMNGINSIEMDSMRHSEDFKEKLPKGNGKRKSDTEFGNMKKKVKLSKEHQSLEENQRQTRSKRKATSDTLESPPKIIPKYISENESPRPSQKKSRVKINWLKSATKQPSILSKFCSLGKITTNQGVKGQSKENECDPEEDLGKCESDNTTNGCGLESPGNTVTPVNVNEVKPINKGEEQIGFELVEKLFQGQLVLRTRCLECESLTERREDFQDISVPVQEDELSKVEESSEISPEPKTEMKTLRWAISQFASVERIVGEDKYFCENCHHYTEAERSLLFDKMPEVITIHLKCFAASGLEFDCYGGGLSKINTPLLTPLKLSLEEWSTKPTNDSYGLFAVVMHSGITISSGHYTASVKVTDLNSLELDKGNFVVDQMCEIGKPEPLNEEEARGVVENYNDEEVSIRVGGNTQPSKVLNKKNVEAIGLLGGQKSKADYELYNKASNPDKVASTAFAENRNSETSDTTGTHESDRNKESSDQTGINISGFENKISYVVQSLKEYEGKWLLFDDSEVKVTEEKDFLNSLSPSTSPTSTPYLLFYKKL
B3: native USP1 complex purified from HeLa nuclear extract (protein)
chain 1: B2 chain
chain 2: not shown
B4: USP1/UAF1 complex (heterodimer) co-expressed in and purified from Sf9 cells, Example 1 (protein)
chain 1: B2 chain with G670A, G671A
chain 2: not shown
B5: USP1 with N-terminal His tag, amino acids 670-71 changed from GG to AA (non-cleavable), purified from Sf9 cells (protein)
chain: B2 chain with G670A, G671A

What was measured:
[1] = target: Flag-HA-tagged UAF1, expressed in and purified from HeLa cells
[2] = target: Ubiquitin-Vinyl Sulfone (U-202; Boston Biochem)
[3] = target: monoubiquitinated Flag-HA-tagged FANCD2 protein purified from hydroxyurea-treated HeLa cells, Q9BXW9
[4] = target: T1, Ubiquitin-7-amido-4-methylcoumarin (U-550; Boston Biochem)
[5] = target: T1, Ubiquitin-7-amido-4-methylcoumarin …; assay: Ub-AMC hydrolysis at 2 nM USP1/UAF1 complex, Lineweaver-Burk plot; standard deviation in brackets
[6] = target: Strep-tagged UAF1-ΔWD2 purified from Sf9 insect cells
[7] = target: UAF1 with engineered C-terminal Strep II tag, purified from Sf9 cells
[8] = target: T1, Ubiquitin-7-amido-4-methylcoumarin …; assay: Ub-AMC hydrolysis at 20 nM USP1, Lineweaver-Burk plot; standard deviation in brackets

Row | Protein | mobility shift in SDS-PAGE with Ub-VS [2] | in vitro deubiquitination of Ub-FANCD2 [3] | Km [4] | Ub-AMC cleavage, fluorescence against time, 10 nM protein [4] | kcat [4] [s⁻¹] | also measured
1 | B1 | there was a shift of both the full length USP1 and the N-terminal cleavage product in the presence of Ub-VS |  |  |  |  | amount of the N-terminal cleavage product of c-Myc-USP1 after cycloheximide in reticulocyte lysate (anti-c-Myc immunoblot) [1]: the e-USP1-N-Term. band (about 97 kDa) stays faint from 0 min to 2h in Control and grows stronger from 0 min to 2h with + UAF1
2 | B2 | there was a shift of both the full length USP1 and the N-terminal cleavage product in the presence of Ub-VS |  |  |  |  | 
3 | B3 | a mobility shift of both full length and the N-terminal cleavage product of USP1 was observed, demonstrating enzymatic activity of both polypeptides | the USP1 complex could support this reaction |  |  |  | 
4 | B4 |  | the UAF11USP1 complex readily deubiquitinated the substrate; about half of the substrate was deubiquitinated | decreasing the Km from 1.4 µM to 0.7 µM | rises steeply from about 350 at 0 min to a plateau of about 2000 reached at about 15 min | 0.26 | rate of Ub-AMC conversion V (nM/s) against [S] (µM), 2 nM USP1/UAF1 complex [4]: V rises from about 0.19 nM/s at about 0.4 µM to about 0.43 nM/s at 3 µM; the fitted curve flattens but still rises, no plateau; Km [5]: 0.7 µM
5 | B5 |  | USP1 protein alone was unable to deubiquitinate Ub-FANCD2 | decreasing the Km from 1.4 µM to 0.7 µM | rises slowly and almost linearly from about 130 at 0 min to about 400 at 40 min | 0.014 | Ub-AMC cleavage by 10 nM USP1, fluorescence against time, 10 nM UAF1-ΔWD2 added during the run [6]: no stimulation: the two dark traces (USP1 and USP1 + UAF1-ΔWD2) lie on one another, step to about 240 at about 12 min and keep their slope, reaching about 300 at about 23 min; Ub-AMC cleavage, fluorescence against time, 10 nM USP1 alone [4]: slow rise from about 120 at 0 min to about 300 at about 23 min, on one line with USP1 + UAF1-ΔWD2; rate of Ub-AMC conversion V (nM/s) against [S] (µM), 20 nM USP1 [4]: V rises from about 0.09 nM/s at 0.6 µM to about 0.2 nM/s at 3 µM; the fitted curve still rises, no plateau; Ub-AMC cleavage by 2 nM USP1, fluorescence against time, 2 nM UAF1 or buffer added during the run [7]: both traces run together from about 130 to about 165 until about 12 min; then + UAF1 steps to about 245 and rises at once in a straight line beyond 500 at about 23 min, while Control steps to about 185 and reaches only about 215 at 25 min; Ub-AMC cleavage by 10 nM USP1, fluorescence against time, 10 nM UAF1 added during the run [7]: the grey trace USP1 + UAF1 runs with the USP1 traces from about 120 to about 200 until about 12 min, then steps to about 310 and rises in a straight line to about 1200 at about 23 min; kcat on Ub-AMC, UAF1/USP1 complex against USP1 alone [7]: augmenting the kcat value 18-fold; kcat/Km on Ub-AMC, UAF1/USP1 complex against USP1 alone [7]: the kcat/Km is 35-fold higher for the UAF1/USP1 complex compared to USP1 alone; substrate turnover of Ubiquitin-AMC after adding UAF1 in an equimolar amount to USP1 [7]: Addition of UAF1 resulted in an instantaneous and robust increase of substrate turnover; Km [8]: 1.4 µM

Source: US20080167229
